Measurements reported in publication PMC8618851, “The RNA Directed DNA Methylation (RdDM) Pathway Regulates Anthocyanin Biosynthesis in Crabapple (Malus cv. spp.) Leaves by Methylating the McCOP1 Promoter”.

Molecular target: McDRM2 (Malus cv. spp. (crabapple), UniProt UPI0010AA5BBA 1-600)
Assay: EMSA; 10x binding buffer, MgCl2, NP-40; 2 uL 10x binding buffer, 1 uL 50% glycerol, 1 uL 100 mM MgCl2, 1 uL 1% NP-40, 2 ug protein, 2 uL 0.1 uM biotin oligo; 25 C, 20 min; 12% native PAGE; pH and salt not given
Conditions: protein: recombinant; tags: MBP (pMAL-C2X); label: 3' biotin

Chain of McDRM2 (chain, as listed by the source): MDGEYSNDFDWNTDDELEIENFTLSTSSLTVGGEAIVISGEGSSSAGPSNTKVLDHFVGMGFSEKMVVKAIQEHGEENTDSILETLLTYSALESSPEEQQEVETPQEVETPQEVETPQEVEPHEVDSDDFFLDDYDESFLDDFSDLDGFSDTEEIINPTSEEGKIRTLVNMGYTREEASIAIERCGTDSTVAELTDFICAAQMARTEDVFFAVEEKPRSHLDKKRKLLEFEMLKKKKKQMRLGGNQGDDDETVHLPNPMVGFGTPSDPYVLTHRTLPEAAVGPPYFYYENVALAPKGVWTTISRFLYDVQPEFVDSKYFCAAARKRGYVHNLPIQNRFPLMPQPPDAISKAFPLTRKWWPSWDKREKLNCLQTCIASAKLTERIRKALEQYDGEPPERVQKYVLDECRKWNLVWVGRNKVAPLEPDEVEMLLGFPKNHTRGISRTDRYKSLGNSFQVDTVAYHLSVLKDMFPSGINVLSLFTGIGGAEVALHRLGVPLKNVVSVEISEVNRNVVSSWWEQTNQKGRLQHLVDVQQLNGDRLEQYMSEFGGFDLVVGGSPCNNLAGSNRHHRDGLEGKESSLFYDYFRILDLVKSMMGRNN

B1: McCOP1 promoter SINE-site probe (dsDNA)
DNA 1: TTCAACGTATTAACTTTATCGGTTCGGTGGACAATTCC
DNA 2: GGAATTGTCCACCGAACCGATAAAGTTAATACGTTGAA
Question: Does B1 bind?
Answer: Result: no binding
